Experimental data reported in PMC9436816.

Columns and labels:
[1] = target: Flag-tagged PKM2^WT (pyruvate kinase M2) (human) (UniProt P14618); test: cross-linking; whole cell lysates (4 mg/ml) cross-linked with 0.025% glutaraldehyde for 3 min at 37 °C, stopped with Tris-HCl pH 8.0, WB; cells with or without EGF (100 ng/ml, 1 h), with or without transfected OGT variants
[2] = colorimetric PK activity of immunoprecipitated PKM2 after EGF; conditions: glycan lost; control: Flag-PKM2 WT, EGF-treated
[3] = glutaraldehyde crosslinking, WB; tetramer fraction after EGF; conditions: glycan lost; control: Flag-PKM2 WT, EGF-treated
[4] = target: pyruvate kinase M2 (PKM2), endogenous (human (endogenous in A549)) (UniProt P14618); test: cross-linking; whole cell lysates (4 mg/ml) cross-linked with 0.025% glutaraldehyde for 3 min at 37 °C, stopped with Tris-HCl pH 8.0, WB; cells with or without EGF (100 ng/ml, 1 h), with or without transfected OGT variants

Work on “Flag-tagged PKM2^WT (pyruvate kinase M2), P14618 1-531 (enzyme; other documents disagree on this pair)” yielded a stoichiometry N [1] of 2.

In the case of Pyruvate kinase M2 (PKM2): T405A/S406A, the enzymatic_activity [2] is reported as “increases” and the oligomerisation [3] is reported as “increases”.

In the case of “pyruvate kinase M2 (PKM2), endogenous, P14618 1-531 (enzyme; other documents disagree on this pair)”, the stoichiometry N [4] is reported as 2.
